Data published in the supplement of paper PMC10567573.

B1: KLHL12 (parent)
chain: SMTTPRCYVGATVLRGRLYAIAGY

Variants of: B1
Assay: protein stability index of a GFP-peptide fusion (GPS, HEK-293T) (PSI 1-6); higher = more stable
Settings: c terminus: a fixed tail appended
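Also: lentivirally expressed fusions sorted by FACS into six bins by GFP to DsRed ratio, PSI derived from sequencing read proportions per bin multiplied by bin number.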

Variant | protein stability index
SMTTPRCYVGATVLRGRLYAQAGY [I21Q] | 1.67
SMTTPRCYVGATVLRGRLYARAGY [I21R] | 1.93
SMTTPRCYVGATVLRGRLYASAGY [I21S] | 1.2
SMTTPRCYVGATVLRGRLYATAGY [I21T] | 1.37
SMTTPRCYVGATVLRGRLYAVAGY [I21V] | 2.33
SMTTPRCYVGATVLRGRLYAWAGY [I21W] | 2.43
SMTTPRCYVGATVLRGRLYAICGY [A22C] | 3.97
SMTTPRCYVGATVLRGRLYAIDGY [A22D] | 2.12
SMTTPRCYVGATVLRGRLYAIEGY [A22E] | 2.3
SMTTPRCYVGATVLRGRLYAIFGY [A22F] | 2.3
SMTTPRCYVGATVLRGRLYAIGGY [A22G] | 1.24
SMTTPRCYVGATVLRGRLYAIHGY [A22H] | 2.68
SMTTPRCYVGATVLRGRLYAIIGY [A22I] | 3.06
SMTTPRCYVGATVLRGRLYAIKGY [A22K] | 1.52
SMTTPRCYVGATVLRGRLYAIMGY [A22M] | 2.01
SMTTPRCYVGATVLRGRLYAINGY [A22N] | 1.3
SMTTPRCYVGATVLRGRLYAIPGY [A22P] | 2.08
SMTTPRCYVGATVLRGRLYAIQGY [A22Q] | 1.52
SMTTPRCYVGATVLRGRLYAIRGY [A22R] | 2.86
SMTTPRCYVGATVLRGRLYAISGY [A22S] | 1.26
SMTTPRCYVGATVLRGRLYAITGY [A22T] | 1.69
SMTTPRCYVGATVLRGRLYAIVGY [A22V] | 1.94
SMTTPRCYVGATVLRGRLYAIAAY [G23A] | 3.75
SMTTPRCYVGATVLRGRLYAIADY [G23D] | 1.64

Variant | protein stability index
SMTTPRCYVGATVLRGRLYAIAEY [G23E] | 2.19
SMTTPRCYVGATVLRGRLYAIAFY [G23F] | 2.6
SMTTPRCYVGATVLRGRLYAIAHY [G23H] | 3.9
SMTTPRCYVGATVLRGRLYAIAIY [G23I] | 1.86
SMTTPRCYVGATVLRGRLYAIAKY [G23K] | 1.35
SMTTPRCYVGATVLRGRLYAIALY [G23L] | 3.25
SMTTPRCYVGATVLRGRLYAIAMY [G23M] | 2.83
SMTTPRCYVGATVLRGRLYAIANY [G23N] | 1.78
SMTTPRCYVGATVLRGRLYAIAPY [G23P] | 2.39
SMTTPRCYVGATVLRGRLYAIAQY [G23Q] | 3.57
SMTTPRCYVGATVLRGRLYAIARY [G23R] | 1.97
SMTTPRCYVGATVLRGRLYAIASY [G23S] | 2.08
SMTTPRCYVGATVLRGRLYAIATY [G23T] | 2.54
SMTTPRCYVGATVLRGRLYAIAWY [G23W] | 2.54
SMTTPRCYVGATVLRGRLYAIAGA [Y24A] | 1.48
SMTTPRCYVGATVLRGRLYAIAGC [Y24C] | 1.82
SMTTPRCYVGATVLRGRLYAIAGD [Y24D] | 2.03
SMTTPRCYVGATVLRGRLYAIAGE [Y24E] | 2.33
SMTTPRCYVGATVLRGRLYAIAGF [Y24F] | 3.7
SMTTPRCYVGATVLRGRLYAIAGG [Y24G] | 2.13
SMTTPRCYVGATVLRGRLYAIAGH [Y24H] | 1.43
SMTTPRCYVGATVLRGRLYAIAGI [Y24I] | 2.45
SMTTPRCYVGATVLRGRLYAIAGK [Y24K] | 2.17
